Data as given in patent US20130323786A1 (Biogen, published 2013).

T1: LINGO-Fc (human, UniProt Q96FE5 40-538, limits assumed)
T1 construct: not shown: Fc part
T1 sequence: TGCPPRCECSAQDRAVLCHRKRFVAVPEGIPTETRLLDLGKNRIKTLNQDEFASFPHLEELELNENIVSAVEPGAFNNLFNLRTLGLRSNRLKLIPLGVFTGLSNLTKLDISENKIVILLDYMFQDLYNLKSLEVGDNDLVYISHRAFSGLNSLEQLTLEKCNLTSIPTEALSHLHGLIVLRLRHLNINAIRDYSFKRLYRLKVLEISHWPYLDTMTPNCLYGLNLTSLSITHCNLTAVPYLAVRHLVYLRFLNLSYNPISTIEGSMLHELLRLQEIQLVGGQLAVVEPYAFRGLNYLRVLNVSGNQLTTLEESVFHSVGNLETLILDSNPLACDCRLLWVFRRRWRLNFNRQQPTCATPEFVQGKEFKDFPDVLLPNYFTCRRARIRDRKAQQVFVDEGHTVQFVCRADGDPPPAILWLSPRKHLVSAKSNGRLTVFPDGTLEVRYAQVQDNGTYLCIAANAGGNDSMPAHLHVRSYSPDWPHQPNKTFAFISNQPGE


Columns and labels:
[1] = molecular target: T1, LINGO-Fc; assay: direct ELISA on LINGO-Fc; OD450 at saturation relative to Li33;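 note: binding to plate-coated LINGO-Fc read by OD450, with the value at maximal saturation divided by the corresponding Li33 value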
Experimental: (§1) A direct binding ELISA assay was performed using LINGO-Fc coated plates. The half maximal concentration that gave 50% saturation of binding was measured and is reported as a ratio of the same measurement for Li33. In addition, the OD450 for maximal saturation value was measured and is reported as a ratio of the same measurement for Li33.

[2] = molecular target: T1, LINGO-Fc; assay: direct ELISA on LINGO-Fc; half-maximal concentration relative to Li33;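 note: direct binding ELISA on plates coated with LINGO-Fc, concentration giving half of saturating binding, expressed as a ratio to the same value for the comparator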
Experimental: as §1

Plateau Ratio [1]	ELISA Ratio [2]	Binder
1.43 ratio	2.5 ratio	Li33 variant P53S (SEQ ID NO:152) (antibody, V domains shown, unchanged chain from WT Li33) VH: EVQLLESGGGLVQPGGSLRLSCAASGFTFSIYPMFWVRQAPGKGLEWVSWIGSSGGITKYADSVKGRFTISRDNSKNTLYLQMNSLRAEDTATYYCAREGHNDWYFDLWGRGTLVTVSS VL: DIQMTQSPGTLSLSPGERATLSCRASQSVSSYLAWYQQKPGQAPRLLIYDASNRATGIPARFSGSGSGTEFTLTISSLQSEDFAVYYCQQYDKWPLTFGGGTKVEIKR
0.87 ratio	1.3 ratio	Li33 variant W50H (SEQ ID NO:147) (antibody, V domains shown, unchanged chain from WT Li33) VH: EVQLLESGGGLVQPGGSLRLSCAASGFTFSIYPMFWVRQAPGKGLEWVSHIGPSGGITKYADSVKGRFTISRDNSKNTLYLQMNSLRAEDTATYYCAREGHNDWYFDLWGRGTLVTVSS VL: DIQMTQSPGTLSLSPGERATLSCRASQSVSSYLAWYQQKPGQAPRLLIYDASNRATGIPARFSGSGSGTEFTLTISSLQSEDFAVYYCQQYDKWPLTFGGGTKVEIKR
0.91 ratio	0.1 ratio	Li33 variant W104H (SEQ ID NO:156) (antibody, V domains shown, unchanged chain from WT Li33) VH: EVQLLESGGGLVQPGGSLRLSCAASGFTFSIYPMFWVRQAPGKGLEWVSWIGPSGGITKYADSVKGRFTISRDNSKNTLYLQMNSLRAEDTATYYCAREGHNDHYFDLWGRGTLVTVSS VL: DIQMTQSPGTLSLSPGERATLSCRASQSVSSYLAWYQQKPGQAPRLLIYDASNRATGIPARFSGSGSGTEFTLTISSLQSEDFAVYYCQQYDKWPLTFGGGTKVEIKR
0.93 ratio	2 ratio	Li33 variant W50M (SEQ ID NO:150) (antibody, V domains shown, unchanged chain from WT Li33) VH: EVQLLESGGGLVQPGGSLRLSCAASGFTFSIYPMFWVRQAPGKGLEWVSMIGPSGGITKYADSVKGRFTISRDNSKNTLYLQMNSLRAEDTATYYCAREGHNDWYFDLWGRGTLVTVSS VL: DIQMTQSPGTLSLSPGERATLSCRASQSVSSYLAWYQQKPGQAPRLLIYDASNRATGIPARFSGSGSGTEFTLTISSLQSEDFAVYYCQQYDKWPLTFGGGTKVEIKR
0.71 ratio	4 ratio	Li33 variant W50D (SEQ ID NO:175) (antibody, V domains shown, unchanged chain from WT Li33) VH: EVQLLESGGGLVQPGGSLRLSCAASGFTFSIYPMFWVRQAPGKGLEWVSDIGPSGGITKYADSVKGRFTISRDNSKNTLYLQMNSLRAEDTATYYCAREGHNDWYFDLWGRGTLVTVSS VL: DIQMTQSPGTLSLSPGERATLSCRASQSVSSYLAWYQQKPGQAPRLLIYDASNRATGIPARFSGSGSGTEFTLTISSLQSEDFAVYYCQQYDKWPLTFGGGTKVEIKR
1.05 ratio	0.8 ratio	Li33 variant W94N (SEQ ID NO:168) (antibody, V domains shown, unchanged chain from WT Li33) VH: EVQLLESGGGLVQPGGSLRLSCAASGFTFSIYPMFWVRQAPGKGLEWVSWIGPSGGITKYADSVKGRFTISRDNSKNTLYLQMNSLRAEDTATYYCAREGHNDWYFDLWGRGTLVTVSS VL: DIQMTQSPGTLSLSPGERATLSCRASQSVSSYLAWYQQKPGQAPRLLIYDASNRATGIPARFSGSGSGTEFTLTISSLQSEDFAVYYCQQYDKNPLTFGGGTKVEIKR
0.86 ratio	1.2 ratio	Li33 variant W50F (SEQ ID NO:148) (antibody, V domains shown, unchanged chain from WT Li33) VH: EVQLLESGGGLVQPGGSLRLSCAASGFTFSIYPMFWVRQAPGKGLEWVSFIGPSGGITKYADSVKGRFTISRDNSKNTLYLQMNSLRAEDTATYYCAREGHNDWYFDLWGRGTLVTVSS VL: DIQMTQSPGTLSLSPGERATLSCRASQSVSSYLAWYQQKPGQAPRLLIYDASNRATGIPARFSGSGSGTEFTLTISSLQSEDFAVYYCQQYDKWPLTFGGGTKVEIKR
0.85 ratio	2.1 ratio	Li33 variant P53T (SEQ ID NO:153) (antibody, V domains shown, unchanged chain from WT Li33) VH: EVQLLESGGGLVQPGGSLRLSCAASGFTFSIYPMFWVRQAPGKGLEWVSWIGTSGGITKYADSVKGRFTISRDNSKNTLYLQMNSLRAEDTATYYCAREGHNDWYFDLWGRGTLVTVSS VL: DIQMTQSPGTLSLSPGERATLSCRASQSVSSYLAWYQQKPGQAPRLLIYDASNRATGIPARFSGSGSGTEFTLTISSLQSEDFAVYYCQQYDKWPLTFGGGTKVEIKR
0.99 ratio	1.3 ratio	Li33 variant W94S (SEQ ID NO:172) (antibody, V domains shown, unchanged chain from WT Li33) VH: EVQLLESGGGLVQPGGSLRLSCAASGFTFSIYPMFWVRQAPGKGLEWVSWIGPSGGITKYADSVKGRFTISRDNSKNTLYLQMNSLRAEDTATYYCAREGHNDWYFDLWGRGTLVTVSS VL: DIQMTQSPGTLSLSPGERATLSCRASQSVSSYLAWYQQKPGQAPRLLIYDASNRATGIPARFSGSGSGTEFTLTISSLQSEDFAVYYCQQYDKSPLTFGGGTKVEIKR
0.87 ratio	1.5 ratio	Li33 variant W94D (SEQ ID NO:166) (antibody, V domains shown, unchanged chain from WT Li33) VH: EVQLLESGGGLVQPGGSLRLSCAASGFTFSIYPMFWVRQAPGKGLEWVSWIGPSGGITKYADSVKGRFTISRDNSKNTLYLQMNSLRAEDTATYYCAREGHNDWYFDLWGRGTLVTVSS VL: DIQMTQSPGTLSLSPGERATLSCRASQSVSSYLAWYQQKPGQAPRLLIYDASNRATGIPARFSGSGSGTEFTLTISSLQSEDFAVYYCQQYDKDPLTFGGGTKVEIKR
0.62 ratio	6.5 ratio	Li33 variant W104I (SEQ ID NO:179) (antibody, V domains shown, unchanged chain from WT Li33) VH: EVQLLESGGGLVQPGGSLRLSCAASGFTFSIYPMFWVRQAPGKGLEWVSWIGPSGGITKYADSVKGRFTISRDNSKNTLYLQMNSLRAEDTATYYCAREGHNDIYFDLWGRGTLVTVSS VL: DIQMTQSPGTLSLSPGERATLSCRASQSVSSYLAWYQQKPGQAPRLLIYDASNRATGIPARFSGSGSGTEFTLTISSLQSEDFAVYYCQQYDKWPLTFGGGTKVEIKR
12.4 ratio	93.5 ratio	Li33 variant W50I (SEQ ID NO:174) (antibody, V domains shown, unchanged chain from WT Li33) VH: EVQLLESGGGLVQPGGSLRLSCAASGFTFSIYPMFWVRQAPGKGLEWVSIIGPSGGITKYADSVKGRFTISRDNSKNTLYLQMNSLRAEDTATYYCAREGHNDWYFDLWGRGTLVTVSS VL: DIQMTQSPGTLSLSPGERATLSCRASQSVSSYLAWYQQKPGQAPRLLIYDASNRATGIPARFSGSGSGTEFTLTISSLQSEDFAVYYCQQYDKWPLTFGGGTKVEIKR
0.55 ratio	3.9 ratio	Li33 variant P53W (SEQ ID NO:154) (antibody, V domains shown, unchanged chain from WT Li33) VH: EVQLLESGGGLVQPGGSLRLSCAASGFTFSIYPMFWVRQAPGKGLEWVSWIGWSGGITKYADSVKGRFTISRDNSKNTLYLQMNSLRAEDTATYYCAREGHNDWYFDLWGRGTLVTVSS VL: DIQMTQSPGTLSLSPGERATLSCRASQSVSSYLAWYQQKPGQAPRLLIYDASNRATGIPARFSGSGSGTEFTLTISSLQSEDFAVYYCQQYDKWPLTFGGGTKVEIKR
1.03 ratio	0.9 ratio	Li33 variant W94G (SEQ ID NO:169) (antibody, V domains shown, unchanged chain from WT Li33) VH: EVQLLESGGGLVQPGGSLRLSCAASGFTFSIYPMFWVRQAPGKGLEWVSWIGPSGGITKYADSVKGRFTISRDNSKNTLYLQMNSLRAEDTATYYCAREGHNDWYFDLWGRGTLVTVSS VL: DIQMTQSPGTLSLSPGERATLSCRASQSVSSYLAWYQQKPGQAPRLLIYDASNRATGIPARFSGSGSGTEFTLTISSLQSEDFAVYYCQQYDKGPLTFGGGTKVEIKR
0.97 ratio	0.6 ratio	Li33 variant W94L (SEQ ID NO:167) (antibody, V domains shown, unchanged chain from WT Li33) VH: EVQLLESGGGLVQPGGSLRLSCAASGFTFSIYPMFWVRQAPGKGLEWVSWIGPSGGITKYADSVKGRFTISRDNSKNTLYLQMNSLRAEDTATYYCAREGHNDWYFDLWGRGTLVTVSS VL: DIQMTQSPGTLSLSPGERATLSCRASQSVSSYLAWYQQKPGQAPRLLIYDASNRATGIPARFSGSGSGTEFTLTISSLQSEDFAVYYCQQYDKLPLTFGGGTKVEIKR
1.05 ratio	0.9 ratio	Li33 variant W94Q (SEQ ID NO:170) (antibody, V domains shown, unchanged chain from WT Li33) VH: EVQLLESGGGLVQPGGSLRLSCAASGFTFSIYPMFWVRQAPGKGLEWVSWIGPSGGITKYADSVKGRFTISRDNSKNTLYLQMNSLRAEDTATYYCAREGHNDWYFDLWGRGTLVTVSS VL: DIQMTQSPGTLSLSPGERATLSCRASQSVSSYLAWYQQKPGQAPRLLIYDASNRATGIPARFSGSGSGTEFTLTISSLQSEDFAVYYCQQYDKQPLTFGGGTKVEIKR
0.91 ratio	1.4 ratio	Li33 variant W94V (SEQ ID NO:171) (antibody, V domains shown, unchanged chain from WT Li33) VH: EVQLLESGGGLVQPGGSLRLSCAASGFTFSIYPMFWVRQAPGKGLEWVSWIGPSGGITKYADSVKGRFTISRDNSKNTLYLQMNSLRAEDTATYYCAREGHNDWYFDLWGRGTLVTVSS VL: DIQMTQSPGTLSLSPGERATLSCRASQSVSSYLAWYQQKPGQAPRLLIYDASNRATGIPARFSGSGSGTEFTLTISSLQSEDFAVYYCQQYDKVPLTFGGGTKVEIKR
1 ratio	1.8 ratio	Li33 variant W50L (SEQ ID NO:149) (antibody, V domains shown, unchanged chain from WT Li33) VH: EVQLLESGGGLVQPGGSLRLSCAASGFTFSIYPMFWVRQAPGKGLEWVSLIGPSGGITKYADSVKGRFTISRDNSKNTLYLQMNSLRAEDTATYYCAREGHNDWYFDLWGRGTLVTVSS VL: DIQMTQSPGTLSLSPGERATLSCRASQSVSSYLAWYQQKPGQAPRLLIYDASNRATGIPARFSGSGSGTEFTLTISSLQSEDFAVYYCQQYDKWPLTFGGGTKVEIKR
0.91 ratio	1.6 ratio	Li33 variant W94A (SEQ ID NO:165) (antibody, V domains shown, unchanged chain from WT Li33) VH: EVQLLESGGGLVQPGGSLRLSCAASGFTFSIYPMFWVRQAPGKGLEWVSWIGPSGGITKYADSVKGRFTISRDNSKNTLYLQMNSLRAEDTATYYCAREGHNDWYFDLWGRGTLVTVSS VL: DIQMTQSPGTLSLSPGERATLSCRASQSVSSYLAWYQQKPGQAPRLLIYDASNRATGIPARFSGSGSGTEFTLTISSLQSEDFAVYYCQQYDKAPLTFGGGTKVEIKR
